From publication PMC7037459, “Constitutive Activation of Guanylate Cyclase by the G86R GCAP1 Variant Is Due to “Locking” Cation-π Interactions that Impair the Activator-to-Inhibitor Structural Transition” (International Journal of Molecular Sciences, 2020)
Positions count from the first letter of the chain named. Names may count otherwise. One block for each binder: values may come before it.

What was measured:
[1] = molecular target: T1, Recombinant human Guanylate Cyclase 1 (human, UniProt Q02846 52-1103)
T1 sequence (looked up): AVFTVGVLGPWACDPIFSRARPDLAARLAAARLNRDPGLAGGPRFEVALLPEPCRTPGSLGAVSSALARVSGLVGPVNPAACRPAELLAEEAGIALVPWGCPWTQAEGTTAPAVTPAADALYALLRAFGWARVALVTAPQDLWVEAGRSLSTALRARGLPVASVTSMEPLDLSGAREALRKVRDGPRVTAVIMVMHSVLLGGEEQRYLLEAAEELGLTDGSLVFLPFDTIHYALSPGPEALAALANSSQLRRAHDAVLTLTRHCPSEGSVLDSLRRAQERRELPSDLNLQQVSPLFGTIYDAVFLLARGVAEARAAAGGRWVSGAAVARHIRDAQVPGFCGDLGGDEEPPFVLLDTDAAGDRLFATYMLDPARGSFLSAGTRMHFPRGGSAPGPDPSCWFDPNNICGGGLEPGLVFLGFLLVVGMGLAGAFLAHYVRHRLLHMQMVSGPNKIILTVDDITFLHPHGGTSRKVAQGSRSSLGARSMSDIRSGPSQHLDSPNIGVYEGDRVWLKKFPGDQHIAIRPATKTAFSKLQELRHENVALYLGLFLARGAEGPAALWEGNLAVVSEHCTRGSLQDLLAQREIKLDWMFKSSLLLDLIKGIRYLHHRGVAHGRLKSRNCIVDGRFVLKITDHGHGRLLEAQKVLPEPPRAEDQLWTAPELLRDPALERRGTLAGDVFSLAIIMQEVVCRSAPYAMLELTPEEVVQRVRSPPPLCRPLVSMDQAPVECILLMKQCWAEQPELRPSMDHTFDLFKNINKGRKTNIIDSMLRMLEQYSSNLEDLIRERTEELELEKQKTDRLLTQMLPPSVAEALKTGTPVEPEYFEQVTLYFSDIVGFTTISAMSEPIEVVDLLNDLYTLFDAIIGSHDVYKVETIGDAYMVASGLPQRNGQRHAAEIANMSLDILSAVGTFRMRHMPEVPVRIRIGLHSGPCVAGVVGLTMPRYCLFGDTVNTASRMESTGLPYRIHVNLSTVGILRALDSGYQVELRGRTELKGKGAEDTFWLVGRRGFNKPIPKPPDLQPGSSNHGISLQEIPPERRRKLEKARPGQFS

[2] = molecular target: T1, Recombinant human Guanylate Cyclase 1; experiment: cell-based or functional assay

B3: GCAP1 G86R+W94F (natural protein, human, UniProt P43080 1-201, looked up)
chain: MGNVMSGKSVEELSSTECHQWYKKFMTECPSGQLTLYEFRQFFGLKNLSPSASQYVEQMFETFDFNKDGYIDFMEYVAALSLVLKRKVEQKLRFYFKLYDVDGNGCIDRDELLTIIQAIRAINPCSDTTMTAEEFTDTVFSKIDVNGDGELSLEEFIEGVQKDQMLLDTLTRSLDLTRIVRRLQNGEQDEEGADEAAEAAG
modifications: myristoylated forms were obtained by co-transformation with yeast N-myristoyl transferase; which form stood in each experiment is not stated
- fold decrease of cGMP synthesis at 33 µM free Ca2+ against the respective maximal activation without Ca2+ [2]: 3 fold

B4: GCAP1 G86R (natural protein, human, UniProt P43080 1-201, looked up)
chain: B3 chain with F94W
modifications: myristoylated forms were obtained by co-transformation with yeast N-myristoyl transferase; which form stood in each experiment is not stated
- fold decrease of cGMP synthesis at 33 µM free Ca2+ against the respective maximal activation without Ca2+ [2]: 2 fold

The remaining lines, values ahead:

- GC activity (cGMP synthesis) of cell membranes containing GC with ~10 µM GCAP1, 1 mM Mg2+ and 2 mM EGTA (absence of Ca2+) (nmol cGMP*min^−1*mg protein^−1) [1]: 20.4
- fold decrease of cGMP synthesis at 33 µM free Ca2+ (inhibiting conditions) against the maximal activation without Ca2+ [1]: 34 fold
B1: Guanylate Cyclase activating protein 1 (GCAP1) WT (natural protein)
chain: B3 chain with R86G, F94W
modifications: myristoylated forms were obtained by co-transformation with yeast N-myristoyl transferase; which form stood in each experiment is not stated

- fold decrease of cGMP synthesis at 33 µM free Ca2+ against the respective maximal activation without Ca2+ [2]: 4 fold
B2: GCAP1 G86R+W94L (natural protein, human, UniProt P43080 1-201, looked up)
chain: B3 chain with F94L
modifications: myristoylated forms were obtained by co-transformation with yeast N-myristoyl transferase; which form stood in each experiment is not stated
